Test results reported in patent US8962569B2, “Compositions comprising spp24 peptide fragments” (The Regeants of the University of California, priority 2010, dated 2015).

Legend:
BMP-2 [1] = biological target: T1, BMP-2 (Homo sapiens, UniProt P12643); conditions: Behnam, 2005; cited from earlier work
T1 sequence (P12643 283-396): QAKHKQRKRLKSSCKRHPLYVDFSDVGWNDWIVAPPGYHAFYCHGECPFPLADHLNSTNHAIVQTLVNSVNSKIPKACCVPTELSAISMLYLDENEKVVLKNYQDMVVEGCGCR

BMP-2 [2] = biological target: T1, BMP-2; conditions: cited from earlier work
[3] = Proteolysis of recombinant spp24 by MC3T3-E1 cell extracts (SDS-PAGE, anti-His6 Western blot); assay type: in vitro ADME, mouse; conditions: 37° C.; for time to essentially complete degradation of His6-spp24: presence of 4 mM calcium, MC3T3-E1 cell extracts
Experimental: MC3T3-E1 mouse preosteoblastic cells were cultured to confluence, harvested by trypsinization, pelleted by centrifugation, and suspended in digestion buffer (100 mM HEPES-HCl, pH 7.5, 12.5 mM KCl, 6.25 mM (3-mercaptoethanol, and 0.2% Triton X-100) plus or minus 4 mM CaCl2 at a protein concentration of 2.4 mg/ml. Recombinant spp24 (residues 23 to 204) was exhaustively dialyzed vs. water, lyophilized, and resuspended at 1 mg/ml in digestion buffer (plus or minus 4 mM CaCl2). Equal volumes of cell extract and spp24 were combined, and incubated at 37° C. for 0 to 24 hours. At the intervals indicated, 4 μl aliquots equivalent to 2 μg spp24 were removed, subjected to SDS-PAGE, and Western blotted using antibody directed against the His6 tag as outlined in detail above.

A549 cells [4] = assay: Subcutaneous implantation of A549 cells and direct measurement of tumor size; assay type: in vivo, SCID mice; conditions: 8 weeks after co-injection with A549 cells; rhBMP-2 10 μg, spp24 1000 μg; cells alone 127.4±117.5; mean±SE per method
Description: (§1) Forty, eight-week-old male SCID mice (weight 23.5 to 29.1 g, mean 27.1 g) were housed under pathogen-free conditions in accordance with the protocol approved by the Chancellor's Animal Research Committee (ARC) at the University of California, Los Angeles. There were four experimental groups in this study, and each group underwent implantation of cells in both a subcutaneous model and an intra-tibial injection. Group I animals received A549 cells alone as a control group. […] Group III received an A549 cells+spp24 (1000 μg). […] There were 10 animals in each group.

A549 cells [5] = assay: Intratibial implantation of A549 cells and radiographic analysis; assay type: in vivo, SCID mice; conditions: 8 weeks
Description: as §1

[6] = Stability of IMAC-purified His6-spp24 on frozen storage (2D SDS-PAGE); assay type: physicochemical; conditions: stored frozen (−20° C., 3 months) in 8 M urea in the presence of protease inhibitors
Experimental: The proteins in representative fractions containing His6-spp24 and its degradation products were separated by 2D SDS-PAGE by the method of O'Farrell (O'Farrell P. H., J. Biol. Chem., 250, 4007-4021 (1975)) (Nancy Kendrick, Ph.D., Kendrick Laboratories, Madison, Wis.) (Behnam, 2005, Behnam, 2006; Behnam, 2002; and Behnam and Murray, 2005). These fractions had been stored at −20° C. for 3 months in urea buffer plus protease inhibitors, resulting in the slow accumulation of degradation products similar to those previously reported (Urist, 1987) that are not abundant in freshly-prepared fractions. The gel was stained with Coomassie Brilliant Blue, and the three major spots of the appropriate molecular weight (<24 kDa) were selected, excised, eluted, reduced in 5% β-mercaptoethanol, alkylated, trypsin digested, and subjected to peptide mass fingerprint analysis by MALDI/ToF MS (Mary Ann Gawinowicz, Ph.D., Protein Chemistry Core Facility, Howard Hughes Medical Institute, Columbia University, New York, N.Y.) to verify their identities and structures (Behnam, 2005, Behnam, 2006, Behnam, 2002; and Behnam and Murray, 2005). Methionines were not oxidized. Peptides with a mass [M+H^+]>1000 Da were analyzed. The peptide fingerprint was compared to those in the SWISS-PRO and NCBI databanks (Behnam, 2005, Behnam, 2006; Behnam, 2002; and Behnam and Murray, 2005). […]

A549 cells [7] = assay: Histologic and histomorphometric analysis of A549 tumors (subcutaneous and tibiae); assay type: in vivo, SCID mice
Description: as §1
Animals were killed at 8 weeks (or earlier if required by an excessive tumor size) and both the soft tissue tumor and the hind limb were harvested for histological analysis. Soft tissue tumors were fixed in 10% buffered formalin. The tibias were fixed in 10% buffered formalin followed by decalcification in a solution of 10% EDTA for 2 weeks at room temperature with gentle stirring. Longitudinal sections of the proximal tibia were prepared and stained with H&E. For histologic and histomorphometric analyses, all microscopic slides were scanned with a ScanScope GL (Aperio Technologies, Inc., Vista, Calif.) equipped with a 20× objective. The following parameters were considered in the qualitative analysis: amount of tumor cells between cortices from the proximal tibia; anterior and posterior cortical destruction and remodeling; new bone formation within the medullary canal; and anterior/posterior extension of bone formation outside the medullary canal. These histologic findings were graded with the following scale: 0 (none), 1 (mild), 2 (moderate), 3 (intense). Bone volume and tumor volume, expressed as a percentage of total tissue volume (% BV/TV and % TuV/TV, respectively) were quantified in whole-slide images using Spectrum software (Aperio Technologies, Inc. Vista, Calif.).

[8] = test system: A549 human non-small cell lung cancer cells; assay: A549 cell proliferation assay (Quick Cell Proliferation Assay); assay type: cell-based; conditions: 48 h
Experimental: The human non-small cell lung cancer (NSCLC) cell line A549 was used in this study (ATCC, Manassas, Va., USA). A549 cells were maintained in DMEM with 10% FBS and antibiotics (Fisher scientific, Pittsburgh, Pa.) in a humidified incubator with 5% CO2 at 37° C. Cells were not used beyond 10 passages. Cells were plated in serum free medium at a density of 10,000 cells/well and allowed to attach for 24 h. […] Recombinant spp24 was prepared as described previously (Murray E J B, et al., Connect Tiss Res 2007; 48:1-8) and added in serum-free media to final concentrations of 10, 25, 50, 75 μg/ml. Cells were incubated for 48 h before cell proliferation was assessed using Quick Cell Proliferation Assay (BioVision, Mountain View, Calif., USA) according to manufacturer's recommendations. Results were reported as a percentage compared with untreated cells.

A549 = conditions: Feeley, 2006; cited from earlier work
[9] = tibiae, grade 0 (none) to 3 (intense), mean

Molecule: BBP: synthetic cyclic 19 amino acid peptide of the TRH1 domain of bovine spp24, CRSTVRMSAEQVQNVWVRC (SEQ ID NO: 8) [reference compound]
- binding of BMP-2 (BMP-2 [1]): specifically binds BMP-2
- effect on BMP-2-induced ectopic bone formation in vivo (BMP-2 [2]; Behnam, 2005): enhances the rate and magnitude of BMP-2-induced ectopic bone formation in vivo

B1: spp24: recombinant His6-tagged bovine secreted phosphoprotein-24 kDa, residues 24 to 203 (SEQ ID NO:1), expressed in E. coli (protein)
chain: MHHHHHHFPVYDYDPASLKEALSASVAKVNSQSLSPYLFRAFRSSVKRVNALDEDSLTMDLEFRIQETTCRRESEADPATCDFQRGYHVPVAVCRSTVRMSAEQVQNVWVRCHWSSSSGSSSSEEMFFGDILGSSTSRNSYLLGLTPDRSRGEPLYEPSREMRRNFPLGNRRYSNPWPRARVNPGFE
modifications: N-terminal Met-His6 tag; Synthetic spp24
- degradation of His6-spp24 by MC3T3-E1 cell extracts ([3]; absence of added calcium, 0 to 24 hours): essentially no degradation was observed until 24 hr
- time to essentially complete degradation of His6-spp24 [3]: ≤ 2 h
- time to essentially complete degradation of His6-spp24 ([3]; listed as His6-spp24): about 2 hours
- subcutaneous tumor volume (A549 cells [4]): 12.6±21.6 mm3
- animals with minimal new bone formation (A549 cells [5]): three of ten
- average radiographic score (A549 cells [5]; score 0 normal to 3 obliteration of two cortices, cells alone 2.1): 0.5±0.6
- susceptibility to proteolysis on storage [6]: highly susceptible to proteolysis
- effect on BMP-2 induced bone formation (BMP-2 [2]; ectopic bone forming assay (Sintuu, 2008)): strongly inhibits BMP-2 induced bone formation
- % TuV/TV (tumor volume/total volume) (A549 cells [7]; longitudinal section of the proximal tibia at midline, mean): insufficient
- tumor cells in histological specimens (A549 cells [7]; subcutaneous and intratibial sites, 8 weeks): only a few scattered tumor cells
- % BV/TV (bone volume/total volume) (A549 cells [7]; tibia section, mean): insufficient
- Anterior cortex destruction (2) (A549 cells [7]; [9]): 0
- Extension of bone formation outside the medullary canal (5) (A549 cells [7]; [9]): 0
- New bone formation within the medullary canal (4) (A549 cells [7]; [9]): 0
- Posterior cortex destruction (3) (A549 cells [7]; [9]): 0
- Amount of tumor cells between cortices (1) (A549 cells [7]; tibiae, grade 0 (none), 1 (mild), 2 (moderate), 3 (intense), mean): 0
- effect on A549 cell proliferation ([8]; agent alone, serum-free media, rhBMP-2 0-500 ng/ml, spp24 10-75 μg/ml): slight dose-dependent inhibition of proliferation
- effect of spp24 on BMP-stimulated A549 proliferation ([8]; spp24 added to the BMP treatment): attenuation of the BMP affect at all doses

B2: noggin: an inhibitor of BMPs (protein, UniProt Q13253 28-232, looked up)
Noggin: QHYLHIRPAPSDNLPLVDLIEHPDPIFDPKEKDLNETLLRSLLGGHYDPGFMATSPPEDRPGGGGGAAGGAEDLAELDQLLRQRPSGAMPSEIKGLEFSEGLAQGKKQRLSKKLRRKLQMWLWSQTFCPVLYAWNDLGSRFWPRYVKVGSCFSKRSCSVPEGMVCKPSKSVHLTVLRWRCQRRGGQRCGWIPIQYPIISECKCSC
- effect on tumor growth (A549): reduce tumor growth
